{"source": "paper PMC10584687", "key": {"[1]": {"target": "GluA2–γ5 fusion construct (N terminus of γ5 covalently linked to the C terminus of GluA2) (rat | mouse) (UniProt Q8VHW4)", "experiment": "cryo-EM structure; complex co-purified from HEK293S GnTI− cells transduced with GluA2–γ5 (no antagonists in the medium) by the streptavidin affinity tag and SEC in 150 mM NaCl, 20 mM Tris pH 8.0, 0.005% CHS, 0.05% digitonin, 1 mM βME; grids with 100 µM ZK, no ligand (apo), 100 µM ZK + 100 µM PMP, or 10 mM Glu"}, "[2]": {"target": "GluA2 (modified calcium-permeable rat GluA2(Q) flip subunit, GluA2*) (rat)"}, "[3]": {"target": "GluA2–γ5 fusion construct (N terminus of γ5 covalently linked to the C terminus of GluA2) (rat | mouse) (UniProt Q8VHW4)"}, "[4]": {"target": "GluA2 (modified calcium-permeable rat GluA2(Q) flip subunit, GluA2*) (rat)", "remark": "listed apart in the source"}, "[5]": {"target": "GluA2–γ5 fusion construct (N terminus of γ5 covalently linked to the C terminus of GluA2) (rat | mouse) (UniProt Q8VHW4)", "remark": "listed apart in the source"}, "[6]": {"target": "GluA2 (modified calcium-permeable rat GluA2(Q) flip subunit, GluA2*) (rat)", "remark": "listed apart in the source"}, "[7]": {"target": "GluA2–γ5 fusion construct (N terminus of γ5 covalently linked to the C terminus of GluA2) (rat | mouse) (UniProt Q8VHW4)", "remark": "listed apart in the source"}, "[8]": {"target": "GluA2 (modified calcium-permeable rat GluA2(Q) flip subunit, GluA2*) (rat)", "experiment": "cryo-EM structure; complex co-purified from HEK293S GnTI− cells transduced with GluA2–γ5 (no antagonists in the medium) by the streptavidin affinity tag and SEC in 150 mM NaCl, 20 mM Tris pH 8.0, 0.005% CHS, 0.05% digitonin, 1 mM βME; grids with 100 µM ZK, no ligand (apo), 100 µM ZK + 100 µM PMP, or 10 mM Glu"}}, "data": [{"binder": "cornichon-2 (CNIH2), endogenous human (natural protein) MAFTFAAFCYMLTLVLCASLIFFVIWHIIAFDELRTDFKNPIDQGNPARARERLKNIERICCLLRKLVVPEYSIHGLFCLMFLCAAEWVTLGLNIPLLFYHLWRYFHRPADGSEVMYDAVSIMNADILNYCQKESWCKLAFYLLSFFYYLYSMVYTLVSF", "values": [{"measurement": "stoichiometry N (CNIH2 subunits per GluA2–γ5 tetramer)", "setting": "[1]", "value": 2}, {"measurement": "deactivation time constant τDeact, whole-cell patch clamp, HEK293 cells cotransfected with GluA2 and wild-type human CNIH2, 2 ms 3 mM Glu, −60 mV", "setting": "[2]", "value": 10.8, "unit": "ms"}, {"measurement": "desensitization time constant τDes, whole-cell patch clamp, HEK293 cells cotransfected with GluA2 and wild-type human CNIH2, 500 ms 3 mM Glu, −60 mV", "setting": "[2]", "value": 28, "unit": "ms"}, {"measurement": "deactivation time constant τDeact, whole-cell patch clamp, HEK293 cells cotransfected with GluA2–γ5 and wild-type human CNIH2, 2 ms 3 mM Glu, −60 mV", "setting": "[3]", "value": 4.21, "unit": "ms"}, {"measurement": "desensitization time constant τDes, whole-cell patch clamp, HEK293 cells cotransfected with GluA2–γ5 and wild-type human CNIH2, 500 ms 3 mM Glu, −60 mV", "setting": "[3]", "value": 14.8, "unit": "ms"}, {"measurement": "time constant of recovery from desensitization τRecDes, two-pulse protocol, HEK293 cells cotransfected with GluA2 and wild-type human CNIH2", "setting": "[4]", "value": 21.7, "unit": "ms"}, {"measurement": "time constant of recovery from desensitization τRecDes, two-pulse protocol, HEK293 cells cotransfected with GluA2–γ5 and wild-type human CNIH2", "setting": "[5]", "value": 36.8, "unit": "ms"}, {"measurement": "fraction of nondesensitized channels ISS/IMax, whole-cell patch clamp, HEK293 cells cotransfected with GluA2 and wild-type human CNIH2", "setting": "[6]", "value": 0.211}, {"measurement": "fraction of nondesensitized channels ISS/IMax, whole-cell patch clamp, HEK293 cells cotransfected with GluA2–γ5 and wild-type human CNIH2", "setting": "[7]", "value": 0.06}]}, {"binder": "TARP γ5 (C-terminally truncated mouse subunit, Cacng5, residues S2-E207) (domain or fragment) SACGRKALTLLSSVFAVCGLGLLGIAVSTDYWLYLEEGIILPQNQSTEVKMSLHSGLWRVCFLAGEERGRCFTIEYVMPMNSQMTSESTVNVLKMIRSATPFPLVSLFFMFIGFILSNIGHIRPHRTILAFVSGIFFILSGLSLVVGLVLYISSINDEMLNRTKDAETYFNYKYGWSFAFAAISFLLTESAGVMSVYLFMKRYTAE", "values": [{"measurement": "stoichiometry N (γ5 subunits per AMPAR tetramer)", "setting": "[8]", "value": 2}]}]}
